A short description of the series: yeast display, Sf9 membrane polyspecificity reagent, FACS + sequencing; frameworks hold sequencing errors. Put shortly:
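Nanobodies from a synthetic yeast display library (Saccharomyces cerevisiae BJ5465), induced 36–48 hours with galactose, were stained 1 hour at 4 °C with 10% biotinylated, detergent-solubilized Sf9 membrane reagent, enriched on streptavidin microbeads, then FACS-sorted. Anti-HA (expression) and streptavidin (reagent binding) fluorescence set low and high (top ~1%) gates. Polyreactivity labels come from the gate of origin. Genes were colony-PCR amplified, MiSeq 2 × 250 sequenced and filtered by CDR length.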
On to “QVQLVESGGGLVQAGGSLRISCAASGFIFHVYAMGWYRQAPGKERELVAAISSGGSTYYADSVKGRFTISRDNAKNTVYLQMNSLKPEDTAVYYCNVARSRYRYRYDYWGQGTQVTVSS”, for which the “polyreactivity (PSR sort gate)” value is “high polyreactivity”.

Turning to “QVQLVESGGGLVQAGGSLRLSCAASGSTFPFYAMGWYRQAPGKERELVAAIPSGGSTYADSVKGRFTISRDNAKNTVYLQMNSLKPEDTAVYYCAASWPRWWRFGYWGQGTQVTVSS”, the “polyreactivity (PSR sort gate)” value is recorded as “low polyreactivity”.

As to “QVQLVESGGGLVQAGGSLRLSCAASGRIFVYNAMGWYRQAPGKERELVAAISRSGSSTYYADSVKGRFTISRDNAKNTVYLQMNSLKPEDTAVYYCNAVLSRWTQSGKYRYRYFGFEYWGQGTQVTVSS”, the “polyreactivity (PSR sort gate)” value is recorded as “high polyreactivity”.

Take “QVQLVESGGGLVQAGCSLRLSCAASGLTFHWYTMGWYRQAPGKERELVATINSGGSTDYADSVKGRFTISRDNAKNTVYLQMNSLKPEDTAVYYCNAEYGYSGVGDDYWGQGTQVTVSS”: the “polyreactivity (PSR sort gate)” value is on record as “low polyreactivity”.

Regarding “QVQLVESGGGLVQAGGSLRLSCAASGITFVYYAMGWYRQAPGKERELVAAISVSGGSTYYADSVKGRFTISRDNAKNTVYLQMNSLKPEDTAVYYCAADGYSGIGVREGYWGQGTQVTVSS”, the “polyreactivity (PSR sort gate)” value is on record as “high polyreactivity”.

For the sequence “QVQLVESGGGLVQAGGSLRLSCAASGSTISRNAMGWYRQAPGKERELVAAITSRSGRTYYADSVKGRFTISRDNAKNTVYLQMNSLKPEDTAVYYCAATVYQGAYTYQFYWGQGTQVTVSS”, the “polyreactivity (PSR sort gate)” value is on record as “high polyreactivity”.

Regarding “QVQLVESGGGLVQAGGSLRLSCAASGFIFAKYVMGWYRQAPGKERELVAAISRSGGSTYYADSVKGRFTISRDNAKNTVYLQLNSLKPEDTAVYYCAADQTTTGGMDYWGQGTQITVSS”, the “polyreactivity (PSR sort gate)” value is “high polyreactivity”.

Consider “QVQLVESGGGLVQAGGSLRLSCAASGRTSVLYAMGWYRQAPWKEREFVAAITWNSGSTYYADSVKGRFTISRDNAKNTVYLQMNSLKPEDTAVYYCNADYYFSSYRSTYDYWGQGTQVTVSS”, for which the “polyreactivity (PSR sort gate)” value is “low polyreactivity”.

Take “QDQLVESGGGIVQAGGSLRLSCAASGFTFHNNVMGWNRQAPGKERELVATISKSGGSTYYADSVKGRFTISRDNAKNTVYLQMNSLKPEDTAVYYCAGRYRDYGRYGYWGQGTQVTVSS”: the “polyreactivity (PSR sort gate)” value is reported as “high polyreactivity”.

For the sequence “QVQLVESGGGLVQAGGSLRLSCAASGIIFKVYAMGWYRQAPGKERELVAAISKSGGSTYYADSVKGRFTISRDNAKNTVYLQMNSLNPEDTAVYYCAARDYARYASYYYWGQGTQVTVSS”, the “polyreactivity (PSR sort gate)” value was “high polyreactivity”.

“QDQLVESGGGLVQAGGSLRLSCAASGSIFVQYAMGWYRQAPGKERELVATISSSGGSTYYADSVKGRFTISRDNAKNTVYLQMNCLKPEDTAVYYCAADWTLDPSYGYYADDYWGQGTQVTVSS”: the “polyreactivity (PSR sort gate)” value is given as “low polyreactivity”.

For “QVQLVESGGGLVQAGGSLRLSCAASGRTFSYYAMGWYRQAPGKERELVAAISWSGGSTYYADSVKGRFTISRDNAKNTVYLQMNSLKPEDTAVYYCNAPGYVWKGYDYWGQGTQVTVSS”, the “polyreactivity (PSR sort gate)” value is listed as “high polyreactivity”.

As for “QVQLVESGGGLVQAGGSLRLSCAASGRTLIVNTMGWYRQAPGKEREFVAAIFSGASTYYAYSVKGRFTISRDNAKNTVYLQMNSLKPEDTAVYYCAVRNWHLIKYLHGYTRYGYWGQCTQVTVSS”, the “polyreactivity (PSR sort gate)” value is listed as “low polyreactivity”.

As to “QVQLVESGGGLVQAGGSLRLSCAASGSTFIVYAMGWYRQAPGKERELVAAITRGGSTNYADSVKGRFTISRDNAKNTVYLQMNSLKPEDTAVYYCAAPYAGWRDGGDYWGQGTQVTVSS”, the “polyreactivity (PSR sort gate)” value was “low polyreactivity”.

In the case of “QVQLVESGGGLVQAGGSLRLSCAASGRTSTIYTMGWYRQAPGKEREIVASISAGAGTYYADSVKGRFTISRDNAKNTVYLQLNSLKPEDTAVYYCNASVYWRSTRRHQMDYWGQGTQVTVSS”, the “polyreactivity (PSR sort gate)” value is listed as “high polyreactivity”.

In the case of “QVQIVESGGGLVQARGSIRFRCAASGRIIGTNTMGWYRQAPGKERELVAAITWSGGSTYYADSVKGRFTISRDKEKTTVYLQMYSLKPEDTAVYYCNVESEYAYHWPVDYWGQGTQVSVSS”, the “polyreactivity (PSR sort gate)” value is “low polyreactivity”.

Consider “QVQLVESGGGLVQAGVSLRLSCAASGRIFYPYVMGWYRQAPGKERELVAAISDSTGSTYYADSVKGRFTISRDNAKNTVYLQMNSLKPEDTAVYYCAAGWFYATYWRFYYWGQGTQVTVSS”, for which the “polyreactivity (PSR sort gate)” value is on record as “low polyreactivity”.

Consider “QVQLVESGGGLVQAGGSLRLSCAASGNIFSFYTMGWYRQAPGKERELVAAISWSGTSTYYADSVKGRFTISRDNAKNTVYLQMNSLKPEDTAVYYCAAERWWSGYEYWGQGTQVTVSS”, for which the “polyreactivity (PSR sort gate)” value was “high polyreactivity”.

“QVQLVESGGGLVQAGGSLRLSCAASGFILYYYAMGWYRQAPGKERELVASISRRGGSTYYADSVKGRFTISRDNAKHTVYLQMNSLKPEDTAVYYCNAYSTYIKYDYWGHGTQVTVSS”: the “polyreactivity (PSR sort gate)” value was “high polyreactivity”.

For the sequence “QVQLVESGGGLVQAGGSLRLSCAASGGTFTFYAMGWYRQAPGKERELVATINWSGGSTYYADSVKGRFTNSRDNAKNTVYLQMNSLKPEDTAVYYCNAAWAYKSVEYWGQGTQVTVSS”, the “polyreactivity (PSR sort gate)” value is given as “low polyreactivity”.

For “QLQLVESGGGLVQAGGSLRLSCAASGYTFYRYAMGWYRQAPGKERELVAAISSAGTTNYADSVKGRFTISRDNAKKTVYFQMNSLKPEDTAVYYCNKRGRNHNSLKYGYWGQGTQVTVSS”, the “polyreactivity (PSR sort gate)” value is “high polyreactivity”.

On to “QVQLVESGGGLVQAGVSLRLSCAASGSIFGRYAMGWYRQAPGKERELVAAINDDSGRTYYADSVKGRFTISRDNAKNTVYLQKNSLKPEDTAVYYCATGRQSEYDYWGQGTQVTVSS”, for which the “polyreactivity (PSR sort gate)” value is “high polyreactivity”.

Take “QVQLVESGGGLVQAGGSLRLSCAASGRTFGGNAMGWNRHAPGKERELVAGINISGGSTNYADSVKGRYTISRDNAKNTVYLQMNSLKPEDSAVYYCNADTAVYAWDDDYWGQGTQVTVSS”: the “polyreactivity (PSR sort gate)” value was “low polyreactivity”.

For “QVQLVESGGGLVQAGGSLRFSCAASGGNFGYYAMGWYRQAPGKERELVARISSSGGSTYYADSVKGRFTISRDNAKNTVYLQMNSLKPEDTAVYYCNTASNRYPGWRAEFDYWGQGTQVTVSS”, the “polyreactivity (PSR sort gate)” value is “low polyreactivity”.

Regarding “QVQLVESGGGLVQAGGSLRLSCAASGSIFAWYGMGWYRPAPGKERELVAAISTAGSTNYADSVKGRFTISRDNAKNTVYLQMNSLKPEDTAVYYCAKKSSWYYPERFDYWGQGTQVTVSS”, the “polyreactivity (PSR sort gate)” value is “low polyreactivity”.

Take “QDQLVESGRGLVQAGGSLRLSCAASGSINATNAMGWYRQAPGKERELVPSISYSVSRTYYADSVKGRFTISRDNAKNTVYFQMNSLTPEDTAVYYCAVRQVNWFGIGYEDDYCGQGTQVTVSS”: the “polyreactivity (PSR sort gate)” value is given as “low polyreactivity”.

For “QVQRVESGGGLVQAGGTLRLSCAASGRIFWYNAMGWSRQAPGKERELVAVISTRGGRTYYADSVKGRFTISRDNAKNTVYLQMNSLKPEDTAVYYCAAEFLNKAVGGVTSIYDSWGQGTQVTVSS”, the “polyreactivity (PSR sort gate)” value is on record as “low polyreactivity”.

As to “QVQLVESGGGLVQAGGSLRFSCAASGRTFVWYTMGWYRQAPGKERELVAAISSGGSTSYADSVKGRFTISRDNAKNTVYLQMNSLKPEDTAVYYCNAVWYVRYSGMDYWGQGTQVTVSS”, the “polyreactivity (PSR sort gate)” value is on record as “high polyreactivity”.

On to “QVQLVESGGGLVQAGGSLRLSCAASGITFYDYAMGWYRQAPGKEREFFARITASGARTYYADSVKGRFTISRDNAKNTVYLQMNSLKPEDTAVYYCAVRGGRPSRRHYDKYDYWGQGTQVTVSS”, for which the “polyreactivity (PSR sort gate)” value is “low polyreactivity”.

For “QVQLVESGGGLVQAGGSLRLSCAASGRIFHFIAMGWYRQAPGKERELVATITKRGGRTYYADSVKGRFTISRDNAKNTVYLQMNSLKPEDTAVYYCNADQSRYSAVSGYDYWGQGTQVTVSS”, the “polyreactivity (PSR sort gate)” value is listed as “high polyreactivity”.

On to “QVQLVESGGGLVQAGGSLRLSCAASGRTFGINAMGWYRQAPGKETELVAVISFGDGGTYYADSVKGRFTISRDNAKNTVYLQMNSLTPEDTAVYYCATDYQSTSVWGGHFVINPYDYWGQGTQVTVSS”, for which the “polyreactivity (PSR sort gate)” value is reported as “low polyreactivity”.

Consider “QVQLVESGGGLVQAGGSLRLSCAASGLTFGPYAMGWYRQAPGKERELVAAITSGGNTNYADSVKGRFTISRDNAKNTVYLQMNSLKPEDTAVYYCATSYYLAYRSITPYDYWGQGTQVTVSS”, for which the “polyreactivity (PSR sort gate)” value is “low polyreactivity”.

Consider “QVQLVESGGGLVQAGGSLRLICAASGFTFFAYAMGWYRQAPGKERELVAGISRSGGRTYYADSVKGRFTISRDNAKNTVYLQMNSLKPEDTAVYYCAAGIPVTSRFYGMDWGQGTQVTVSS”, for which the “polyreactivity (PSR sort gate)” value is listed as “high polyreactivity”.

For “QVQLVESGGGLFQAGGTHRLSCAASGFISKYYAMGWYRQAPGKERELVSSISRDGSTSYADSVKGRFTISRDNAKNTVYLQMNSLKAEDSAVYYCAAPSYRTRYYYWGQGTQVTVSS”, the “polyreactivity (PSR sort gate)” value is “high polyreactivity”.

Take “QVQLVESGGGLVQAGGSLRLICAASGITFYRYDMGWYRQAPGKERELVAAISTRGGSTYYADSVKGRFTISRDNAKNTVYLQMNSLKPEDTAVYYCAKERVGTSLPFKDYYWGQGTQVTVSS”: the “polyreactivity (PSR sort gate)” value is listed as “low polyreactivity”.

With “QVQLVESGGGLVQAGGSLRLSCAASGFTFGYYAMGWYRQAPGKERELVAAITNSGGSTYYADSVKGRFTISRDNAKNTVYLQMNSLKPEDTAVYYCAAEISILPFVTPDTIYGYWGQGTQVTVSS”, the “polyreactivity (PSR sort gate)” value was “low polyreactivity”.

In the case of “QVQLVESGGGLVQAGGSLRLSCAASGSIFPRNAMGWYRQAPGKERELVAAISWRGGRTYYADSVKGRFTISRDNAKKTVYLQMNSLNPEDTAVYYCSEQYSRWKRGEYYLSSSYGYWGQGTQVTVSS”, the “polyreactivity (PSR sort gate)” value is listed as “high polyreactivity”.

Turning to “QVQLVESGGGLVQAGGSLRLSCPASGIILTQNAMGWYRQAPGKERELVAAITESGARTYYADSVKGRFTISRDNAKNTVYLQMISLKPEDTAVYSCNAYRYYRGQVYPFYYWGHGTQVTVSS”, the “polyreactivity (PSR sort gate)” value is given as “low polyreactivity”.

Turning to “QVQLVESGGGLVQAGGSLRLSCAASGSIFNYYAMGWNRQAPVKETEFVADISGSGSSTYYADSVKGRFTISRDNAKNTVYLQMNSLKPEDTAVYYCIAEYYWGVGYYPYSDYGYWGQGTQVTVSS”, the “polyreactivity (PSR sort gate)” value is “low polyreactivity”.

Turning to “QVQVVESGGGLVQAGGSLRLSCAASGRIFYVYAMGWYRQAPGKERELVAAITISGGSTYYADSVKGRFTISRDNAKNTVYLQMNSLKPEDTAVYYCATDRSSHWYDYWGQGTQVTVSS”, the “polyreactivity (PSR sort gate)” value was “low polyreactivity”.

The values are drawn from the nanobody polyreactivity screen of Harvey et al. (2022).
